Data from US20250011379A1.

B1: Const. No. 94: hCFI-PD (wild type plasma-derived human CFI), P05156 19-583 (enzyme)
chain: KVTYTSQEDLVEKKCLAKKYTHLSCDKVFCQPWQRCIEGTCVCKLPYQCPKNGTAVCATNRRSFPTYCQQKSLECLHPGTKFLNNGTCTAEGKFSVSLKHGNTDSEGIVEVKLVDQDKTMFICKSSWSMREANVACLDLGFQQGADTQRRFKLSDLSINSTECLHVHCRGLETSLAECTFTKRRTMGYQDFADVVCYTQKADSPMDDFFQCVNGKYISQMKACDGINDCGDQSDELCCKACQGKGFHCKSGVCIPSQYQCNGEVDCITGEDEVGCAGFASVTQEETEILTADMDAERRRIKSLLPKLSCGVKNRMHIRRKRIVGGKRAQLGDLPWQVAIKDASGITCGGIYIGGCWILTAAHCLRASKTHRYQIWTTVVDWIHPDLKRIVIEYVDRIIFHENYNAGTYQNDIALIEMKKDGNKKDCELPRSIPACVPWSPYLFQPNDTCIVSGWGREKDNERVFSLQWGEVKLISNCSKFYGNRFYEKEMECAGTYDGSIDACKGDSGGPLVCMDANNVTYVWGVVSWGENCGKPEFPGVYTKVANYFDWISYHVGRPFISQYNV
B2: Const. No. 96: hCFI (wt hCFI, no signal sequence, no HSA), P05156 19-583 (enzyme)
chain: B1 chain

Target: human C4b (human), P0C0L5
Assay: cell-based or functional assay

Chain of human C4b (human), P0C0L5 (P0C0L5 20-1744): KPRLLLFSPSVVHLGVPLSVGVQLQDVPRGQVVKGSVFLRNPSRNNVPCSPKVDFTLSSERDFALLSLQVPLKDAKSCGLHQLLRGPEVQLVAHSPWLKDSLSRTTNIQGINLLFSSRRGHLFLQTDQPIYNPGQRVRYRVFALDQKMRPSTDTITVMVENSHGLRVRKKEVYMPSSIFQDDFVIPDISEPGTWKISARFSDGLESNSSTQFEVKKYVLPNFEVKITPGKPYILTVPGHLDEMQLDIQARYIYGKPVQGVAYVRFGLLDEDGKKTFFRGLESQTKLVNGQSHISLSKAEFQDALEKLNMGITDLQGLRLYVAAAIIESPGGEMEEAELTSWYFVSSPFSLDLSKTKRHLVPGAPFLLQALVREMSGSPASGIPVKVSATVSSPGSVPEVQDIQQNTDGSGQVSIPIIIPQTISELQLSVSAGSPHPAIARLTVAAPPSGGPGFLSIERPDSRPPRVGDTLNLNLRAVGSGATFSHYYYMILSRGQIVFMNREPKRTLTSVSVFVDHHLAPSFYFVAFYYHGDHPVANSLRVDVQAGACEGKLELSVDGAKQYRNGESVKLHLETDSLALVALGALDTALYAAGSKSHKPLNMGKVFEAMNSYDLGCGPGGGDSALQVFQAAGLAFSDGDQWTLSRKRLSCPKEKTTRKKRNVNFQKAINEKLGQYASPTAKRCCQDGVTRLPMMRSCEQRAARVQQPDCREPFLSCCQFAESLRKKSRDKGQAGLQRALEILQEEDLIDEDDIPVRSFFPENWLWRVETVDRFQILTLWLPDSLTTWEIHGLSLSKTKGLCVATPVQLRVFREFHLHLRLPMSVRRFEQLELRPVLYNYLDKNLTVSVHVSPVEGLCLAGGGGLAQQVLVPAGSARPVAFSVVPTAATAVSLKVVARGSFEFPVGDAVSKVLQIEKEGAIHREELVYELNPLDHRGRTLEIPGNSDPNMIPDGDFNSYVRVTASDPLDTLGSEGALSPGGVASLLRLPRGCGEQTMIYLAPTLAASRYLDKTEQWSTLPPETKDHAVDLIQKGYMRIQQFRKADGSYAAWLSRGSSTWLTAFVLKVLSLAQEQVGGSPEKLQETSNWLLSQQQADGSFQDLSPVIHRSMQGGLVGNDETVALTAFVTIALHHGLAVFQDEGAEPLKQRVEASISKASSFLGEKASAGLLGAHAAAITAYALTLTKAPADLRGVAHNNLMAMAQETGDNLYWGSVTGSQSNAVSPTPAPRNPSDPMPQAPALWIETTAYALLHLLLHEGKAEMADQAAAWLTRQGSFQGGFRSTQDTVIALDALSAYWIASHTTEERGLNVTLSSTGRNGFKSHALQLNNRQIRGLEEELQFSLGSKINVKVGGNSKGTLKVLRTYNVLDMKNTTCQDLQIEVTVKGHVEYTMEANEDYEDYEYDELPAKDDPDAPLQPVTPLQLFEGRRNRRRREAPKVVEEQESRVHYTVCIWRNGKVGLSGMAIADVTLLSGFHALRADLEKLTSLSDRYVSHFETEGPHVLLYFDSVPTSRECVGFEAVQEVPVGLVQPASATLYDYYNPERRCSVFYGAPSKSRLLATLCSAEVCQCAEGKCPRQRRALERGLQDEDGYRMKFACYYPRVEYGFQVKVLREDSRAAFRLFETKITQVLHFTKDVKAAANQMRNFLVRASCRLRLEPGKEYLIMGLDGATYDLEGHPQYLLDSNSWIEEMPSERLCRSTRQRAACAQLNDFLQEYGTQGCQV

Row | Binder | C4c EC50 [µM]
1 | B1 | 0.412
2 | B2 | 0.34
